We go through one substance from patent US5508261.

The target of assay [1] is bovine testes FSH receptors (bovine) (UniProt P35376). As to the kind of experiment: inhibition of 125I-hFSH binding to bovine testes FSH receptors.
Assay [2] deals with rat luteal ovarian LH receptors (rat) (UniProt P16235). As to the kind of experiment: inhibition of 125I-hCG binding to rat luteal ovarian LH receptors.

For the substance eCG (ligand), the activity relative to hFSH (FSH RECEPTORS; ratio of concentrations for 50% inhibition) (relative to recombinant hFSH) in assay [1] amounted to 0.18. In assay [2], the activity relative to hCG (LH RECEPTORS; ratio of concentrations for 50% inhibition) (relative to recombinant hCG) stood at 0.53.
